Laboratory results published in patent publication US20230212319A1, “NOVEL ANTIGEN BINDING DOMAINS AND SYNTHETIC ANTIGEN RECEPTORS INCORPORATING THE SAME” (University of Southern California, priority 2020, published 2023).

System: SKOV3-Luc cells
Assay: SKOV3 xenograft in NSG mice
Conditions: for tumor inhibition / protection, SKOV3 xenograft: 1 × 10^6 SKOV3-Luc s.c., a week later 3 × 10^6 SAR-T i.v.; for survival, SKOV3 xenograft: mouse, in vivo

Molecule	tumor inhibition / protection, SKOV3 xenograft	survival, SKOV3 xenograft
10311 (protein, Synthetic Polynucloetide) MALPVTALLLPLALLLHAARPEVQLVESGGGLVQPGGSLRLSCAASGYTFTSYWLHWVRQAPGKGLEWVGYIRPSTGYTEYNQKFKDRFTISADTSKNTAYLQMNSLRAEDTAVYYCARSRWLLDYWGQGTLVTVSSGGGGSGGGGSGGGGSDIQMTQSPSSLSASVGDRVTITCKSSQSLLYSSNQKNYLAWFQQKPGKAPKLLIYWASTRESGVPSRFSGSGSGTDFTLTISSLQPEDFATYFCHQYLSSYTFGQGTKVEIKRTREQKLISEEDLAKPTTTPAPRPPTPAPTIASQPLSLRPEACRPAAGGAVHTRGLDFACDIYIWAPLAGTCGVLLLSLVITLYCKRGRKKLLYIFKQPFMRPVQTTQEEDGCSCRFPEEEEGGCELRVKFSRSADAPAYQQGQNQLYNELNLGRREEYDVLDKRRGRDPEMGGKPRRKNPQEGLYNELQKDKMAEAYSEIGMKGERRRGKGHDGLYQGLSTATKDTYDALHMQALPPR	weak protection	–
10315 (protein, Synthetic Polynucloetide) MALPVTALLLPLALLLHAARPDIQMTQSPSSLSASVGDRVTITCKSSQSLLYSSNQKNYLAWFQQKPGKAPKLLIYWASTRESGVPSRFSGSGSGTDFTLTISSLQPEDFATYFCHQYLSSYTFGQGTKVEIKRLEDLKNVFPPEVAVFEPSEAEISHTQKATLVCLATGFYPDHVELSWWVNGKEVHSGVCTDPQPLKEQPALNDSRYCLSSRLRVSATFWQNPRNHFRCQVQFYGLSENDEWTQDRAKPVTQIVSAEAWGRADCGFTSESYQQGVLSATILYEILLGKATLYAVLVSALVLMAMVKRKDSRGRAKRSGSGATNFSLLKQAGDVEENPGPTSMDWIWRILFLVGAATGAHSFEEVQLVESGGGLVQPGGSLRLSCAASGYTFTSYWLHWVRQAPGKGLEWVGYIRPSTGYTEYNQKFKDRFTISADTSKNTAYLQMNSLRAEDTAVYYCARSRWLLDYWGQGTLVTVSSTRIQNPDPAVYQLRDSKSSDKSVCLFTDFDSQTNVSQSKDSDVYITDKCVLDMRSMDFKSNSAVAWSNKSDFACANAFNNSIIPEDTFFPSPESSCDVKLVEKSFETDTNLNFQNLSVIGFRILLLKVAGFNLLMTLRLWSS	tumor inhibition	improvement in survival
10384 (protein, Synthetic Polynucloetide) MALPVTALLLPLALLLHAARPDIQMTQSPSSLSASVGDRVTITCKSSQSVLYSSNQKNYLAWFQQKPGKAPKLLIYWASTRESGVPSRFSGSGSGTDFTLTISSLQPEDFATYFCHQYLSSYTFGQGTKVEIKRLEDLKNVFPPEVAVFEPSEAEISHTQKATLVCLATGFYPDHVELSWWVNGKEVHSGVCTDPQPLKEQPALNDSRYCLSSRLRVSATFWQNPRNHFRCQVQFYGLSENDEWTQDRAKPVTQIVSAEAWGRADCGFTSESYQQGVLSATILYEILLGKATLYAVLVSALVLMAMVKRKDSRGRAKRSGSGATNFSLLKQAGDVEENPGPTSMDWIWRILFLVGAATGAHSFEEVQLVESGGGLVQPGGSLRLSCAASGFTFTTYWMHWVRQAPGKGLEWVGYIRPSTGYTEYNQKFKDRFTISADTSKNTAYLQMNSLRAEDTAVYYCARSRWLLDYWGQGTLVTVSTRIQNPDPAVYQLRDSKSSDKSVCLFTDFDSQTNVSQSKDSDVYITDKCVLDMRSMDFKSNSAVAWSNKSDFACANAFNNSIIPEDTFFPSPESSCDVKLVEKSFETDTNLNFQNLSVIGFRILLLKVAGFNLLMTLRLWSS	tumor inhibition	improvement in survival
10522 (protein, Synthetic Polynucloetide) MALPVTALLLPLALLLHAARPDIQMTQSPSSLSASVGDRVTITCRASQDISNYLNWYQQKPGKAPKLLIYYTSRLHSGVPSRFSGSGSGTDFTLTISSLQPEDFATYYCQQGNTLPYTFGQGTKVEIKRLEDLKNVFPPEVAVFEPSEAEISHTQKATLVCLATGFYPDHVELSWWVNGKEVHSGVCTDPQPLKEQPALNDSRYCLSSRLRVSATFWQNPRNHFRCQVQFYGLSENDEWTQDRAKPVTQIVSAEAWGRADCGFTSESYQQGVLSATILYEILLGKATLYAVLVSALVLMAMVKRKDSRGRAKRSGSGATNFSLLKQAGDVEENPGPTSMDWIWRILFLVGAATGAHSFEEVQLVESGGGLVQPGGSLRLSCAASGYTFSDYFMSWVRQAPGKGLEWVATISNGGTYTYYPDSVKGRFTISRDNSKNTLYLQMNSLRAEDTAVYYCARFDGYIFDYWGQGTLVTVSSTRIQNPDPAVYQLRDSKSSDKSVCLFTDFDSQTNVSQSKDSDVYITDKCVLDMRSMDFKSNSAVAWSNKSDFACANAFNNSIIPEDTFFPSPESSCDVKLVEKSFETDTNLNFQNLSVIGFRILLLKVAGFNLLMTLRLWSS	tumor inhibition	improvement in survival
10660 (protein, Synthetic Polynucloetide) MALPVTALLLPLALLLHAARPDIQMTQSPSSLSASVGDRVTITCRASQDISNYLNWYQQKPGKAPKLLIYYTSRLHSGVPSRFSGSGSGTDFTLTISSLQPEDFATYYCQQGNTLPWTFGQGTKVEIKRLEDLKNVFPPEVAVFEPSEAEISHTQKATLVCLATGFYPDHVELSWWVNGKEVHSGVCTDPQPLKEQPALNDSRYCLSSRLRVSATFWQNPRNHFRCQVQFYGLSENDEWTQDRAKPVTQIVSAEAWGRADCGFTSESYQQGVLSATILYEILLGKATLYAVLVSALVLMAMVKRKDSRGRAKRSGSGATNFSLLKQAGDVEENPGPTSMDWIWRILFLVGAATGAHSFEEVQLVESGGGLVQPGGSLRLSCAASGFTFSDYFMSWVRQAPGKGLEWVATISNGGTYTYYPDSVKGRFTISRDNSKNTLYLQMNSLRAEDTAVYYCARFDGYIFDYWGQGTLVTVSSTRIQNPDPAVYQLRDSKSSDKSVCLFTDFDSQTNVSQSKDSDVYITDKCVLDMRSMDFKSNSAVAWSNKSDFACANAFNNSIIPEDTFFPSPESSCDVKLVEKSFETDTNLNFQNLSVIGFRILLLKVAGFNLLMTLRLWSS	tumor inhibition	improvement in survival
10591 (protein, Synthetic Polynucloetide) MALPVTALLLPLALLLHAARPDIQMTQSPSSLSASVGDRVTITCRASQDISSYLNWYQQKPGKAPKLLIYYTSRLHSGVPSRFSGSGSGTDFTLTISSLQPEDFATYYCQQGNTLPYTFGQGTKVEIKRLEDLKNVFPPEVAVFEPSEAEISHTQKATLVCLATGFYPDHVELSWWVNGKEVHSGVCTDPQPLKEQPALNDSRYCLSSRLRVSATFWQNPRNHFRCQVQFYGLSENDEWTQDRAKPVTQIVSAEAWGRADCGFTSESYQQGVLSATILYEILLGKATLYAVLVSALVLMAMVKRKDSRGRAKRSGSGATNFSLLKQAGDVEENPGPTSMDWIWRILFLVGAATGAHSFEEVQLVESGGGLVQPGGSLRLSCAASGFTFSDYFMSWVRQAPGKGLEWVATISNGGTYTYYPDSVKGRFTISRDNSKNTLYLQMNSLRAEDTAVYYCARFDGYIFDYWGQGTLVTVSSTRIQNPDPAVYQLRDSKSSDKSVCLFTDFDSQTNVSQSKDSDVYITDKCVLDMRSMDFKSNSAVAWSNKSDFACANAFNNSIIPEDTFFPSPESSCDVKLVEKSFETDTNLNFQNLSVIGFRILLLKVAGFNLLMTLRLWSS	tumor inhibition	improvement in survival
10453 (protein, Synthetic Polynucloetide) MALPVTALLLPLALLLHAARPEVQLVESGGGLVQPGGSLRLSCAASGYTFTTYWMHWVRQAPGKGLEWVGYIRPSTGYTEYNQKFKDRFTISADTSKNTAYLQMNSLRAEDTAVYYCARSRWLLDYWGQGTLVTVSLEDLKNVFPPEVAVFEPSEAEISHTQKATLVCLATGFYPDHVELSWWVNGKEVHSGVCTDPQPLKEQPALNDSRYCLSSRLRVSATFWQNPRNHFRCQVQFYGLSENDEWTQDRAKPVTQIVSAEAWGRADCGFTSESYQQGVLSATILYEILLGKATLYAVLVSALVLMAMVKRKDSRGRAKRSGSGATNFSLLKQAGDVEENPGPTSMDWIWRILFLVGAATGAHSFEDIQMTQSPSSLSASVGDRVTITCKSSQSLLYSSNQKNYLAWFQQKPGKAPKLLIYWASTRESGVPSRFSGSGSGTDFTLTISSLQPEDFATYFCHQYLSSYTFGQGTKVEIKRTRIQNPDPAVYQLRDSKSSDKSVCLFTDFDSQTNVSQSKDSDVYITDKCVLDMRSMDFKSNSAVAWSNKSDFACANAFNNSIIPEDTFFPSPESSCDVKLVEKSFETDTNLNFQNLSVIGFRILLLKVAGFNLLMTLRLWSS	tumor inhibition	improvement in survival
10380 (protein, Synthetic Polynucloetide) MALPVTALLLPLALLLHAARPEVQLVESGGGLVQPGGSLRLSCAASGFTFTTYWMHWVRQAPGKGLEWVGYIRPSTGYTEYNQKFKDRFTISADTSKNTAYLQMNSLRAEDTAVYYCARSRWLLDYWGQGTLVTVSGGGGSGGGGSGGGGSDIQMTQSPSSLSASVGDRVTITCKSSQSVLYSSNQKNYLAWFQQKPGKAPKLLIYWASTRESGVPSRFSGSGSGTDFTLTISSLQPEDFATYFCHQYLSSYTFGQGTKVEIKRTREQKLISEEDLAKPTTTPAPRPPTPAPTIASQPLSLRPEACRPAAGGAVHTRGLDFACDIYIWAPLAGTCGVLLLSLVITLYCKRGRKKLLYIFKQPFMRPVQTTQEEDGCSCRFPEEEEGGCELRVKFSRSADAPAYQQGQNQLYNELNLGRREEYDVLDKRRGRDPEMGGKPRRKNPQEGLYNELQKDKMAEAYSEIGMKGERRRGKGHDGLYQGLSTATKDTYDALHMQALPPR	weak protection	–
